Experimental data as given in US20240158497A1 (published 2024).

T1: Macaca fascicularis GP130 extracellular domain expressed with a C-terminal myc-myc-hexahistidine tag (Macaca fascicularis, UniProt P40189 23-619 (human entry))
T1 construct: Monomeric reagent; also called mfGP130-mmH; mfGP130-MMH
T1 chain: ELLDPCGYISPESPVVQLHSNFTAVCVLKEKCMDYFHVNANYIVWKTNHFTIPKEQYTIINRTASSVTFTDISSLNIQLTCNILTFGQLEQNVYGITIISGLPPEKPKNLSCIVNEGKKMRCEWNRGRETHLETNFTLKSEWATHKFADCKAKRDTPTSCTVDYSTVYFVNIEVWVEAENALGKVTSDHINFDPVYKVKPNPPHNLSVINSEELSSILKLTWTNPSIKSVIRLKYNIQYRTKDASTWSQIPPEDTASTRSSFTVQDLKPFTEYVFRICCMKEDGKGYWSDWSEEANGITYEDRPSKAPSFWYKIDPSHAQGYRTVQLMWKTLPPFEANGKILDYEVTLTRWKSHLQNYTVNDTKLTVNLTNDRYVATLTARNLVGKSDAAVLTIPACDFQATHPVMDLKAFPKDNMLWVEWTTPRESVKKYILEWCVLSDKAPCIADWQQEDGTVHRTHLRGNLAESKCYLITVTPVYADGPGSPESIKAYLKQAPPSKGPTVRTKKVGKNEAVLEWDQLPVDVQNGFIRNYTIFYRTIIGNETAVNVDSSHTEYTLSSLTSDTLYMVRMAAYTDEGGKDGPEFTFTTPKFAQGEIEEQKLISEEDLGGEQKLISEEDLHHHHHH

T2: Macaca Fascicularis GP130 extracellular domain expressed with a C-terminal myc-myc-hexahistidine tag (Macaca fascicularis, UniProt P40189 23-619 (human entry))
T2 construct: also called mfGP130-MMH; mfGP130-mmH
T2 chain: T1 chain

B1: MAb16622 (antibody, V domains shown)
VH: EVQLVESGGGVVRPGGSLRLSCTASGFTFDDYGMSWVRQAPGKGLEWVSGINWNGGRTEYADAVKGRFIISRDNAKNSLYLQMNSLRAEDTALYFCARTELRWDYWGQGTLVTVSS
VL: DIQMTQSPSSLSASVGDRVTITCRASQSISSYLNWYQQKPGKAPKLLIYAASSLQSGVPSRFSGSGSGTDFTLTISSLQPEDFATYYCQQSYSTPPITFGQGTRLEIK
B2: MAb16614 (antibody, V domains shown)
VH: QVQLVESGGGVVQPGGSLRLSCAASGFTFSTYDIHWVRQAPGKGLEWVAVISFDGSNRNYGDSVKGRFTISRDNSDNTLFLEMNNLRFEDTAVYYCAKEGYGVDFQHWGQGTLVTVSS
VL: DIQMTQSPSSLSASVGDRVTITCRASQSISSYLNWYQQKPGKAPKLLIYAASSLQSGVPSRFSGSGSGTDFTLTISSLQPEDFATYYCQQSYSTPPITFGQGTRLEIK
B3: MAb16618 (antibody, V domains shown)
VH: QVQLQESGPGLVKPSETLSLTCTVSGGSISNYYWTWIRQPPGKGLEWIGHISNSGTTNYNPSLKSRVTISVDTSKNQFSLKLTSVTAADTAVYYCARLPLGIAAVDTDYYYYFGMDVWGQGTTVTVSS
VL: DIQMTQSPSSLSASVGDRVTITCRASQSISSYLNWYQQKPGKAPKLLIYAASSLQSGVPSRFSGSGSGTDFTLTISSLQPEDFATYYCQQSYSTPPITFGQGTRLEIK
B4: bsAb19153D (bispecific antibody, V domains shown)
VH 1: QVQLVESGGGVVQPGRSLRLSCTASGFTFSSYAMYWVRQAPGKGLEWVSVIYYDGSYKYYADSVKGRFTISRDNSKNTLYLQMDSLRAEDTAVYYCASYNWNYWYFDFWGRGTLVTVSS
VH 2: QVQLVQSGAEVMKPGASVKVSCRASGYTFSSYDINWVRQAPGQGLEWMGWISTATGNTNYPQKVQGRVTMTTDTSTNTAYMELRSLRSDDTAVYYCTREGNSKGWLDPWGQGTLVTVSS
VL: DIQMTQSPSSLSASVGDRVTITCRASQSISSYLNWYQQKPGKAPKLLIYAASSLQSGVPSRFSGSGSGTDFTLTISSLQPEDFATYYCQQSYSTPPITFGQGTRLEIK
notes: LEPR x GP130 bispecific with common light chain
B5: bsAb19156D (bispecific antibody, V domains shown)
VH 1: B4 VH 1
VH 2: QVQLVESGGGLVKPGGSLRLSCAASGFTFSDYYMTWIRQTPGKGLDWVSYISSSGTNKYNADSVKGRFTISRDNAKNSLYLQMNSLRAEDTAVYYCVRDPPWGMDVWGQGTTVTVSS
VL: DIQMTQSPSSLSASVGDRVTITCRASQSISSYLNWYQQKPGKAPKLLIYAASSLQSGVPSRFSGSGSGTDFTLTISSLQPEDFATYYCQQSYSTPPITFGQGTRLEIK
notes: as for B4
B6: bsAb19155D (bispecific antibody, V domains shown)
VH 1: B4 VH 1
VH 2: EVQLVESGGGLVQPGGSLRLSCAASGFTFSTYWMNWVRQAPGKGLEWVANIKEDGSEKYYVDSVKGRFTISRDNAKNSLYLQMNSLRAEDTAVYYCAREGFGVVTYIWGQGTMVTVSS
VL: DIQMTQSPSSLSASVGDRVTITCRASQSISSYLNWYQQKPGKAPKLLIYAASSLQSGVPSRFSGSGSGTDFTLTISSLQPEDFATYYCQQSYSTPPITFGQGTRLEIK
notes: as for B4
B7: bsAb19757D (bispecific antibody, V domains shown)
VH 1: EVQLVESGGGLVQPGGSLRLSCVASGFTFNKYDMHWVRQTTGKGLEWVSGIDTDGDTYYPGSVKGRFTISRENAENSLYLQMNGLRVGDTAVYYCARWPWSGFYGAFDIWGQGTMVTVSS
VH 2: B1 VH
VL: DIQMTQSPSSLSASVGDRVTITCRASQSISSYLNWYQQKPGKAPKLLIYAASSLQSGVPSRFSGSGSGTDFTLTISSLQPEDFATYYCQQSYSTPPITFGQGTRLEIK
notes: as for B4
B8: bsAb19758D (bispecific antibody, V domains shown)
VH 1: B7 VH 1
VH 2: EVQLVESGGGLVQSGGSLRLSCAASGFTFSRYEMNWVRQAPGKGLEWVAYISNTGTTRDYSDSVKGRFTISRDNAKNSLYLQMSSLRVEDTAVYYCVREKFSGTSDWFDPWGQGTLVTVSS
VL: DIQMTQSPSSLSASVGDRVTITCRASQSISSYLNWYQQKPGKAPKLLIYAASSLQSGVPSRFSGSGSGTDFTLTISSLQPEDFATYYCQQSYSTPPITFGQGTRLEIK
notes: as for B4

Target: T1, Macaca fascicularis GP130 extracellular …
Assay: SPR (Biacore 4000), mAb captured on anti-human Fc, 25 C
Experimental: (§1) Equilibrium dissociation constant (KD) for different GP130 reagents binding to purified anti-GP130 monoclonal antibodies were determined using a real-time surface plasmon resonance based Biacore 4000 biosensor. All binding studies were performed in 10 mM HEPES, 150 mM NaCl, 3 mM EDTA, and 0.05% v/v Surfactant Tween-20, pH 7.4 (HBS-ET) running buffer at 25° C. and 37° C. The Biacore sensor surface was first derivatized by amine coupling with a monoclonal mouse anti-human Fc antibody (GE, #BR-1008-39) to capture anti-GP130 monoclonal antibodies. […] Reagents tagged with “mmH” are monomeric, whereas reagents tagged with “mFc” are dimeric. Thus, for example, “hGP130-mmH” is also referred to as “monomeric human GP130,” and “hGP130-mFc” is also referred to as “dimeric human GP130.”
(§2) The association rate (k a) and dissociation rate (kd) were determined by fitting the real-time binding sensorgrams to a 1:1 binding model with mass transport limitation using Scrubber 2.0c curve-fitting software. Binding dissociation equilibrium constant (KD) and dissociative half-life (t ½) were calculated from the kinetic rates as: […]

100 nM Ag Bound [RU] | Kd [nM] | koff [s⁻¹] | kon [M⁻¹ s⁻¹] | t½ [s] | Binder
34 | 151 | 0.02 | 132000 | 36 | B1
16 | 139 | 0.0104 | 74400 | 66 | B2
40 | 166 | 0.0621 | 374000 | 12 | B3

Target: T1, Macaca fascicularis GP130 extracellular …
Assay: SPR (Biacore 4000), mAb captured on anti-human Fc, 37 C
Experimental: as §1, §2

100 nM Ag Bound [RU] | Kd [nM] | koff [s⁻¹] | kon [M⁻¹ s⁻¹] | t½ [s] | Binder
28 | 198 | 0.0537 | 272000 | 12 | B1
8 | 72.2 | 0.0267 | 370000 | 24 | B2
26 | 90.3 | 0.12 | 1.33e+06 | 6 | B3

Each binder was assayed against T3, human GP130 extracellular domain expressed with a C-terminal myc-myc-hexahistidine tag (human, UniProt P40189 23-619) in the same assay as above.
T3 construct: Monomeric reagent; also called hGP130-mmH; hGP130-MMH
Experimental: as §1, §2

100 nM Ag Bound [RU] | Kd [nM] | koff [s⁻¹] | kon [M⁻¹ s⁻¹] | t½ [s] | Binder
30 | 225 | 0.0574 | 255000 | 12 | B1
10 | 121 | 0.03 | 247000 | 24 | B2
36 | 103 | 0.112 | 1.08e+06 | 6 | B3

These binders were tested against T4, human GP130 extracellular domain expressed with a C-terminal myc-myc-hexahistidine tag (human, UniProt P40189 23-619) (assay: SPR, bsAb captured by anti-hFc, 37C).
T4 construct: also called hGP130-MMH; hGP130-mmH
Experimental: (§3) Equilibrium dissociation constants (KD values) for LEPR and GP130 binding to purified anti-LEPR/GP130 bispecific antibodies were determined using a real-time surface plasmon resonance biosensor using a Biacore 4000 instrument. All binding studies were performed in 10 mM HEPES, 150 mM NaCl, 3 mM EDTA, and 0.05% v/v Surfactant Tween-20, pH 7.4 (HBS-ET) running buffer at 25° C. and 37° C. The Biacore sensor surface was first derivatized by amine coupling with a monoclonal mouse anti-human Fc antibody (GE, #BR-1008-39) to capture anti-LEPR/GP130 bispecific antibodies. […] Different concentrations of LEPR or GP130 reagents were first prepared in HBS-ET running buffer (100 nM-3.7 nM; 3-fold serial dilution) and were injected over anti-human Fc captured anti-LEPR/GP130 bispecific antibody surface for 4 minutes at a flow rate of 30 μL/minute, while the dissociation of bispecific antibody bound LEPR or GP130 reagent was monitored for 10 minutes in HBS-ET running buffer. Kinetic association (kₐ) and dissociation (kd) rate constants were determined by fitting the real-time binding sensorgrams to a 1:1 binding model with mass transport limitation using Scrubber 2.0c curve-fitting software. Binding dissociation equilibrium constants (KD) and dissociative half-lives (t ½) were calculated from the kinetic rate constants as: […]

100 nM hGP130-MMH Bound (RU) | Kd [nM] | koff [s⁻¹] | kon [M⁻¹ s⁻¹] | t½ [s] | binding result | Binder
33 | 3.95 | 0.00126 | 319000 | 540 |  | B4
24 | 95 | 0.00797 | 83900 | 84 |  | B5
4 |  |  |  |  | no binding (tested: 100 nM) | B6
16 | 358 | 0.0635 | 178000 | 12 |  | B7
50 | 16.7 | 0.00747 | 448000 | 90 |  | B8

Target: T2, Macaca Fascicularis GP130 extracellular …
Assay: SPR, bsAb captured by anti-hFc, 37C
Experimental: as §3

100 nM mfGP130-MMH Bound (RU) | Kd [nM] | koff [s⁻¹] | kon [M⁻¹ s⁻¹] | t½ [s] | Binder
32 | 4.33 | 0.00123 | 284000 | 540 | B4
26 | 87.6 | 0.00767 | 87500 | 90 | B5
3 |  |  |  |  | B6
14 | 450 | 0.0598 | 133000 | 12 | B7
45 | 18.2 | 0.0073 | 402000 | 96 | B8

These binders were tested against T4, human GP130 extracellular domain … (assay: SPR, bsAb captured by anti-hFc, 25C).
Experimental: as §3

100 nM hGP130-MMH Bound (RU) | Kd [nM] | koff [s⁻¹] | kon [M⁻¹ s⁻¹] | t½ [s] | Binder
24 | 1.62 | 0.000419 | 258000 | 1680 | B4
27 | 24.7 | 0.00221 | 89500 | 300 | B5
7 |  |  |  |  | B6
16 | 196 | 0.0218 | 112000 | 30 | B7
51 | 14.6 | 0.00457 | 313000 | 150 | B8

Target: T2, Macaca Fascicularis GP130 extracellular …
Assay: SPR, bsAb captured by anti-hFc, 25C
Experimental: as §3

100 nM mfGP130-MMH Bound (RU) | Kd [nM] | koff [s⁻¹] | kon [M⁻¹ s⁻¹] | t½ [s] | Binder
23 | 1.73 | 0.000396 | 229000 | 1740 | B4
30 | 22.1 | 0.00162 | 73300 | 420 | B5
7 | 186 | 0.0184 | 98500 | 36 | B6
15 | 188 | 0.0204 | 108000 | 36 | B7
46 | 16.5 | 0.00507 | 307000 | 138 | B8
